Assay results taken from article PMC7319049 (Nature, 2020).

Columns and labels:
Test in all cases: cryo-EM structure
[1] = molecular target: Snf2 (S. cerevisiae, UniProt P22082 1-1703)
[2] = molecular target: T1, Swi1 (S. cerevisiae, UniProt P09547 1-1314)
T1 sequence: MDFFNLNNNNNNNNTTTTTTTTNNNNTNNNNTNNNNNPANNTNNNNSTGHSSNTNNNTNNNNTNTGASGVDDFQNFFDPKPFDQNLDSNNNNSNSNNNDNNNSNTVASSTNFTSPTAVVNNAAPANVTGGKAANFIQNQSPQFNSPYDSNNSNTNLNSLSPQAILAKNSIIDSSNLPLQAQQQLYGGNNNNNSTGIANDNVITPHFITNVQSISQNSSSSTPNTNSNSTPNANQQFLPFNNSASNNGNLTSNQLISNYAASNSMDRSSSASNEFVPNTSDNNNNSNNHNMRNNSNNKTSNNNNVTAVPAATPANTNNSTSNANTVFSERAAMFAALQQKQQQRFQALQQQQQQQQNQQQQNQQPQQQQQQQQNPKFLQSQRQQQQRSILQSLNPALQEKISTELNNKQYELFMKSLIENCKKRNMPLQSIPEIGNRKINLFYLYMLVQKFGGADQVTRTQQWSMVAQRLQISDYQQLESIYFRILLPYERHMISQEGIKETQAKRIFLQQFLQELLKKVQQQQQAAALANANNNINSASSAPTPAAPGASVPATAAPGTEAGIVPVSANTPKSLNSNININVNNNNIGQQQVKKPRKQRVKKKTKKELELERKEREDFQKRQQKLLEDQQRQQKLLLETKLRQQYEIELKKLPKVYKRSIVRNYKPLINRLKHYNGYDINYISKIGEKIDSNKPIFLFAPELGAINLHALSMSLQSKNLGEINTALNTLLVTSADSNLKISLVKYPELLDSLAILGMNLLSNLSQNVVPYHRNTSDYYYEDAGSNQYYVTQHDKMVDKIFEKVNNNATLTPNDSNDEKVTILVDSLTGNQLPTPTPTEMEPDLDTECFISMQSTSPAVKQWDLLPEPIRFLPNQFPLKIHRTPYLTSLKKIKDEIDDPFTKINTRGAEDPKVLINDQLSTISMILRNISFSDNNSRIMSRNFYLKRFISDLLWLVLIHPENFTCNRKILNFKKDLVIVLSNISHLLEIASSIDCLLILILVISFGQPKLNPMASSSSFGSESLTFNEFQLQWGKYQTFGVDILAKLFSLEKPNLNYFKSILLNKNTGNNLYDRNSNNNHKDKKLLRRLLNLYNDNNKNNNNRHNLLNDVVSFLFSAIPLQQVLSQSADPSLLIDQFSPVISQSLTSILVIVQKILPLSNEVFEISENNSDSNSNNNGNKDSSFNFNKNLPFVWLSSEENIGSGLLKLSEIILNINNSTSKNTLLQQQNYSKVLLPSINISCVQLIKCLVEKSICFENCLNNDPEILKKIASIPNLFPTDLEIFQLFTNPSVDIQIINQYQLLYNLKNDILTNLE

[3] = molecular target: Snf5 (S. cerevisiae, UniProt P18480 1-905)
[4] = molecular target: the molecule itself

Chain of Snf2 (P22082 whole entry): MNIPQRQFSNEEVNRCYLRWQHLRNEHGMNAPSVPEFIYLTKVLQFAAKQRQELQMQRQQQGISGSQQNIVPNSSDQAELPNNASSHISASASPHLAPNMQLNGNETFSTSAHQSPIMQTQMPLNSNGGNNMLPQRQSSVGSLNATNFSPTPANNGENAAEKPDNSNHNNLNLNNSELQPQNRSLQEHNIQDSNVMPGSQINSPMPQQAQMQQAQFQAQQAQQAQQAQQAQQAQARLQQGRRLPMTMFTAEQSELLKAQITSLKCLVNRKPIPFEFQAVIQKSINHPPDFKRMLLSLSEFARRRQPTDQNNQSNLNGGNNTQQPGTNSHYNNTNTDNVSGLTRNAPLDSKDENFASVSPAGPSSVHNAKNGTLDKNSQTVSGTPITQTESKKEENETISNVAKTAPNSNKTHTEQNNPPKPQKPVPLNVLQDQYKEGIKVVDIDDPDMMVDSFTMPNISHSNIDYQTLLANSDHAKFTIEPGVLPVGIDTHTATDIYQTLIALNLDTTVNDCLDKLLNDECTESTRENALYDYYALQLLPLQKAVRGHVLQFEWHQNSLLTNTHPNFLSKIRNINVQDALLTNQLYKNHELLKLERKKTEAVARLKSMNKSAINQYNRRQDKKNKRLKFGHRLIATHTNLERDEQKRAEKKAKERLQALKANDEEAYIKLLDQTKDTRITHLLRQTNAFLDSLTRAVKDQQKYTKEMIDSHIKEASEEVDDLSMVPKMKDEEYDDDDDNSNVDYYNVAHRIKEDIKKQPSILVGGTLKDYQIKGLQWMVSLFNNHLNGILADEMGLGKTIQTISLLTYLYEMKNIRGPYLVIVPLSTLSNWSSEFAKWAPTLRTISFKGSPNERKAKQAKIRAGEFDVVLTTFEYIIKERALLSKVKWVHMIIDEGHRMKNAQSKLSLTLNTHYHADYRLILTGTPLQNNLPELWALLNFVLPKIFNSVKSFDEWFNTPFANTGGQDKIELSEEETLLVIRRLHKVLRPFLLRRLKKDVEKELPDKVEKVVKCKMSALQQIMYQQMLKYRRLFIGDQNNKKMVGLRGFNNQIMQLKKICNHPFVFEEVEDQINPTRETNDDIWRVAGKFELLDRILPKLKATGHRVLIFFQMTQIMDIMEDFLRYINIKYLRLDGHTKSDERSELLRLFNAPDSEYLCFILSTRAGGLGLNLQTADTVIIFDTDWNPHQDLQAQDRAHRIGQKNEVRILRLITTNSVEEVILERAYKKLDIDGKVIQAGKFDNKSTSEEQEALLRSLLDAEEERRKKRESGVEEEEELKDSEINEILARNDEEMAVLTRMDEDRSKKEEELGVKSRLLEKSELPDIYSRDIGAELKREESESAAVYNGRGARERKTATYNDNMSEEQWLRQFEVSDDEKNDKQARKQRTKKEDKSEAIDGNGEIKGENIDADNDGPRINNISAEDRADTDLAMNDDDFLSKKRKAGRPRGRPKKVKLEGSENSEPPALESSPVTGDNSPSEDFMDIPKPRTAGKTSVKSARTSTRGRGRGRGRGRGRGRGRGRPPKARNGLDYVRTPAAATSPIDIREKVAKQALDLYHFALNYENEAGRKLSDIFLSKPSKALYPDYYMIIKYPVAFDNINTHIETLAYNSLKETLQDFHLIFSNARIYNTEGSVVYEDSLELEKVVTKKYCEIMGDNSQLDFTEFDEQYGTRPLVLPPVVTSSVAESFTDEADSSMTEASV
Chain of Snf5 (P18480 whole entry): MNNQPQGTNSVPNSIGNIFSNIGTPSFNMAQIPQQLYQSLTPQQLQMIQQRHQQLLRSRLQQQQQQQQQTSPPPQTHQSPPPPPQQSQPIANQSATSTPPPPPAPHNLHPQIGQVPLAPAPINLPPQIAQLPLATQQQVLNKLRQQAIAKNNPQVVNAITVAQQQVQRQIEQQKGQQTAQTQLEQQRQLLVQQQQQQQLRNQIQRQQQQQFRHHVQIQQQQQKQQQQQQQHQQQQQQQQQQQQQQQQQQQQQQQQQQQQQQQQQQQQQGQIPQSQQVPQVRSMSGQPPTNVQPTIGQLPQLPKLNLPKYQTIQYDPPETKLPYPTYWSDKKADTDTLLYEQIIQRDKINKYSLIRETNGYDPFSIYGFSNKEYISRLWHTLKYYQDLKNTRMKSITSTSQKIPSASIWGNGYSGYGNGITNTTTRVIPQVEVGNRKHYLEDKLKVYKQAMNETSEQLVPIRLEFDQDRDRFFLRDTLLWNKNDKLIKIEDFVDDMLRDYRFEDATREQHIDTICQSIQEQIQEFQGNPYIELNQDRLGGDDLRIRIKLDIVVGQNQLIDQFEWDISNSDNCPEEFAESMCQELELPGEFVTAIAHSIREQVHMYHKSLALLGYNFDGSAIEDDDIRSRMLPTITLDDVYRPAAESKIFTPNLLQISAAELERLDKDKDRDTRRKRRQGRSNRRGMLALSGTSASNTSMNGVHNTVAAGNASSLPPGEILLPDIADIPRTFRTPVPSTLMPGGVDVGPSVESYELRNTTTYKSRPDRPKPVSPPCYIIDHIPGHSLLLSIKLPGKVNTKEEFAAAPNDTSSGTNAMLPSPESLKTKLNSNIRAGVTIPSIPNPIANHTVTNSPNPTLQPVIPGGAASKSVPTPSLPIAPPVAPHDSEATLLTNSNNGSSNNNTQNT

B1: Swi3 (natural protein)
chain: MENTLGEGSTVNASVDVDQHGNDNNSDSNANAAVAGVANTDTAGEESQQQDESLKDEATVPNTRDAESEAITVTAKQQPTMQANKLDSQETPSTEESRAQNVFGQDNEDSDNLFGETESSVSNNEANTPSIPTNPVDNENNKPAIKEDSTIQDSNGDVKNMEDVKIQKEEEPENNTVIEGVKEESQPDENTKEMDEVEEDDEDDDQPMISPDNSIFGDTKSESKQLGNTSSVANTPSEIPDAHKAEQEDIIEKTESVDKKVDSGEERNEQEREIMNDHSKSANPKKTTITRVEPETFEIPQAHEIVIPSYSKWFNLEKIHSIEVQSLPEFFTNRIPSKTPEVYMRYRNFMVNSYRLNPNEYFSVTTARRNVSGDAAALFRLHKFLTKWGLINYQVDSKLLPKNIEPPLTSQYSTRHDAPRGLFPFESYKPSVQLPDMAKLKKMMNTSDSESTLYKYLKESKRKYDEITHPPSTTDDENGDKNDNGGKMNNEVSTSTSMTGDANLLEEGETSRPLKKVKILEQIDENWSKEDLQKLLKGIQEFGADWYKVAKNVGNKSPEQCILRFLQLPIEDKFLYGDGNGKGDNDNGLGPLKYAPHLPFSKSENPVLSTIAFLVGLVNPKTVQSMTQRAIQSAESIKSQKEEISDQKPIEHIKEGSEIAISSLGYRSHIFATNEERQMNFLTNELIRLQMEKLDAKLNHLKKLEKFMELERKTLERQQENLLIQRLNFNQNSSKIVNVLSKCLNLISDSNINNSSVAEKEEIRSQIDHFKSMLSKPETLSIGKNPFNKPNIETGENHNGQSISNENDVKPISIEAPQFYRYWSA
binding result [1]: binds | binding result [2]: binds | binding result [3]: binds | stoichiometry N [4]: 2
